The results in this text go back to the supplement of paper PMC5998384.

In data set [1] the test system is HeLa Kyoto. As to the kind of experiment: thermal stability score vs G1/S (z-score of summed log2 fold changes over temperatures); higher = more thermally stable than in G1/S.
In data set [2] the test system is HeLa Kyoto. As to the kind of experiment: solubility change mitosis vs G1/S (difference of NP-40 vs SDS log2 ratios) (log2 ratio difference); higher = more soluble in mitosis.
The test system of data set [3] is HeLa Kyoto. As to the kind of experiment: solubility in G1/S (NP-40 vs SDS abundance) (log2 ratio); higher = more soluble. To be noted: cell cycle stage: G1/S.
Data set [4] relates to HeLa Kyoto. As to the kind of experiment: melting temperature (median over replicates), in situ; higher = more thermally stable.
The mark [5] stands for this setting: cell cycle stage: early G1 (4.5 h after nocodazole release).
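Wherever melting temperature (median over replicates), in situ is given: HeLa Kyoto cells synchronized by double thymidine or nocodazole block, proteins quantified by TMT10plex mass spectrometry, three independent biological replicates.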
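Wherever solubility change mitosis vs G1/S (difference of NP-40 vs SDS log2 ratios) is given: synchronized HeLa Kyoto cells (double thymidine block for G1/S, nocodazole release for mitosis), protein amounts in NP-40 versus SDS lysates quantified by mass spectrometry, three biological replicates.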
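Wherever solubility in G1/S (NP-40 vs SDS abundance) is given: HeLa Kyoto cells arrested at G1/S by double thymidine block, proteins quantified by TMT10plex mass spectrometry in mild NP-40 versus SDS extracts, three biological replicates.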
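Wherever thermal stability score vs G1/S (z-score of summed log2 fold changes over temperatures) is given: synchronized HeLa Kyoto cells, proteins quantified by TMT10plex mass spectrometry, three biological replicates, mitosis taken 0.5 h after nocodazole release, G1/S directly after double thymidine block.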

“MRPGGERPVEGGACNGRSELELLKLRSAECIDEAAERLGALSRAIWSQPELAYEEHHAHRVLTHFFEREPPAASWAVQPHYQLPTAFRAEWEPPEARAPSATPRPLHLGFLCEYDALPGIGHACGHNLIAEVGAAAALGVRGALEGLPRPPPPVKVVVLGTPAEEDGGGKIDLIEAGAFTNLDVVFMAHPSQENAAYLPDMAEHDVTVKYYGKASHSASYPWEGLNALDAAVLAYNNLSVFRQQMKPTWRVHGIIKNGGVKPNIIPSYSELIYYFRAPSMKELQVLTKKAEDCFRAAALASGCTVEIKGGAHDYYNVLPNKSLWKAYMENGRKLGIEFISEDTMLNGPSGSTDFGNVSFVVPGIHPYFHIGSNALNHTEQYTEAAGSQEAQFYTLRTAKALAMTALDVIFKPELLEGIREDFKLKLQEEQFVNAVE [PM20D2]”: the thermal stability score in the data set with HeLa Kyoto [1] (setting [5]) is -0.942; in the data set with HeLa Kyoto [1] (cell cycle stage: mitosis) it was -1.84. The “solubility change mitosis (log2)” value with HeLa Kyoto [2] was determined as 0.0574. The “solubility in G1/S (log2)” value with HeLa Kyoto [3] was 0.167. Further, the melting temperature was 52.7 °C with HeLa Kyoto [4] (cell cycle stage: G1/S) and 52.2 °C in the data set on HeLa Kyoto [4] (cell cycle stage: mitosis).
Regarding “MRPLLLLALLGWLLLAEAKGDAKPEDNLLVLTVATKETEGFRRFKRSAQFFNYKIQALGLGEDWNVEKGTSAGGGQKVRLLKKALEKHADKEDLVILFADSYDVLFASGPRELLKKFRQARSQVVFSAEELIYPDRRLETKYPVVSDGKRFLGSGGFIGYAPNLSKLVAEWEGQDSDSDQLFYTKIFLDPEKREQINITLDHRCRIFQNLDGALDEVVLKFEMGHVRARNLAYDTLPVLIHGNGPTKLQLNYLGNYIPRFWTFETGCTVCDEGLRSLKGIGDEALPTVLVGVFIEQPTPFVSLFFQRLLRLHYPQKHMRLFIHNHEQHHKAQVEEFLAQHGSEYQSVKLVGPEVRMANADARNMGADLCRQDRSCTYYFSVDADVALTEPNSLRLLIQQNKNVIAPLMTRHGRLWSNFWGALSADGYYARSEDYVDIVQGRRVGVWNVPYISNIYLIKGSALRGELQSSDLFHHSKLDPDMAFCANIRQQDVFMFLTNRHTLGHLLSLDSYRTTHLHNDLWEVFSNPEDWKEKYIHQNYTKALAGKLVETPCPDVYWFPIFTEVACDELVEEMEHFGQWSLGNNKDNRIQGGYENVPTIDIHMNQIGFEREWHKFLLEYIAPMTEKLYPGYYTRAQFDLAFVVRYKPDEQPSLMPHHDASTFTINIALNRVGVDYEGGGCRFLRYNCSIRAPRKGWTLMHPGRLTHYHEGLPTTRGTRYIAVSFVDP [PLOD1]”, the values for the thermal stability score in the data set on HeLa Kyoto [1] (setting [5]) and in the data set with HeLa Kyoto [1] (cell cycle stage: mitosis) were 3.69 and 3.91, respectively. The “solubility change mitosis (log2)” value with HeLa Kyoto [2] is -0.0758. Moreover, the “solubility in G1/S (log2)” value in the data set with HeLa Kyoto [3] is -0.0992. Besides, the melting temperature with HeLa Kyoto [4] (cell cycle stage: G1/S) is 54.3 °C; with HeLa Kyoto [4] (cell cycle stage: mitosis) it was 54.5 °C.
Regarding “MRPLPGALGVAAAAALWLLLLLLPRTRADEHEHTYQDKEEVVLWMNTVGPYHNRQETYKYFSLPFCVGSKKSISHYHETLGEALQGVELEFSGLDIKFKDDVMPATYCEIDLDKEKRDAFVYAIKNHYWYQMYIDDLPIWGIVGEADENGEDYYLWTYKKLEIGFNGNRIVDVNLTSEGKVKLVPNTKIQMSYSVKWKKSDVKFEDRFDKYLDPSFFQHRIHWFSIFNSFMMVIFLVGLVSMILMRTLRKDYARYSKEEEMDDMDRDLGDEYGWKQVHGDVFRPSSHPLIFSSLIGSGCQIFAVSLIVIIVAMIEDLYTERGSMLSTAIFVYAATSPVNGYFGGSLYARQGGRRWIKQMFIGAFLIPAMVCGTAFFINFIAIYYHASRAIPFGTMVAVCCICFFVILPLNLVGTILGRNLSGQPNFPCRVNAVPRPIPEKKWFMEPAVIVCLGGILPFGSIFIEMYFIFTSFWAYKIYYVYGFMMLVLVILCIVTVCVTIVCTYFLLNAEDYRWQWTSFLSAASTAIYVYMYSFYYYFFKTKMYGLFQTSFYFGYMAVFSTALGIMCGAIGYMGTSAFVRKIYTNVKID [TM9SF3]”, the figures for the thermal stability score with HeLa Kyoto [1] (setting [5]) and in the data set on HeLa Kyoto [1] (cell cycle stage: mitosis) were 2.92 and 5.14, respectively. Further, the “solubility change mitosis (log2)” value in the data set on HeLa Kyoto [2] was -0.173. Moreover, the “solubility in G1/S (log2)” value in the data set on HeLa Kyoto [3] was -0.181. Moreover, the melting temperature with HeLa Kyoto [4] (cell cycle stage: G1/S) was determined as 53.5 °C; in the data set on HeLa Kyoto [4] (cell cycle stage: mitosis), 53.4 °C.
Turning to “MRPRKAFLLLLLLGLVQLLAVAGAEGPDEDSSNRENAIEDEEEEEEEDDDEEEDDLEVKEENGVLVLNDANFDNFVADKDTVLLEFYAPWCGHCKQFAPEYEKIANILKDKDPPIPVAKIDATSASVLASRFDVSGYPTIKILKKGQAVDYEGSRTQEEIVAKVREVSQPDWTPPPEVTLVLTKENFDEVVNDADIILVEFYAPWCGHCKKLAPEYEKAAKELSKRSPPIPLAKVDATAETDLAKRFDVSGYPTLKIFRKGRPYDYNGPREKYGIVDYMIEQSGPPSKEILTLKQVQEFLKDGDDVIIIGVFKGESDPAYQQYQDAANNLREDYKFHHTFSTEIAKFLKVSQGQLVVMQPEKFQSKYEPRSHMMDVQGSTQDSAIKDFVLKYALPLVGHRKVSNDAKRYTRRPLVVVYYSVDFSFDYRAATQFWRSKVLEVAKDFPEYTFAIADEEDYAGEVKDLGLSESGEDVNAAILDESGKKFAMEPEEFDSDTLREFVTAFKKGKLKPVIKSQPVPKNNKGPVKVVVGKTFDSIVMDPKKDVLIEFYAPWCGHCKQLEPVYNSLAKKYKGQKGLVIAKMDATANDVPSDRYKVEGFPTIYFAPSGDKKNPVKFEGGDRDLEHLSKFIEEHATKLSRTKEEL [PDIA4]”, the results for the thermal stability score in the data set with HeLa Kyoto [1] (setting [5]) and in the data set with HeLa Kyoto [1] (cell cycle stage: mitosis) were 3.99 and 4.66, respectively. In addition, the “solubility change mitosis (log2)” value in the data set with HeLa Kyoto [2] was -0.0655. In addition, the “solubility in G1/S (log2)” value in the data set on HeLa Kyoto [3] turned out to be 0.264. The melting temperature in the data set with HeLa Kyoto [4] (cell cycle stage: G1/S) was found to be 53.9 °C; with HeLa Kyoto [4] (cell cycle stage: mitosis) it was 54.4 °C.
With “MRPVRLMKVFVTRRIPAEGRVALARAADCEVEQWDSDEPIPAKELERGVAGAHGLLCLLSDHVDKRILDAAGANLKVISTMSVGIDHLALDEIKKRGIRVGYTPDVLTDTTAELAVSLLLTTCRRLPEAIEEVKNGGWTSWKPLWLCGYGLTQSTVGIIGLGRIGQAIARRLKPFGVQRFLYTGRQPRPEEAAEFQAEFVSTPELAAQSDFIVVACSLTPATEGLCNKDFFQKMKETAVFINISRGDVVNQDDLYQALASGKIAAAGLDVTSPEPLPTNHPLLTLKNCVILPHIGSATHRTRNTMSLLAANNLLAGLRGEPMPSELKL [GRHPR]”, the thermal stability score with HeLa Kyoto [1] (setting [5]) came out at 0.108; in the data set on HeLa Kyoto [1] (cell cycle stage: mitosis) it was 0.371. For the same sequence, the “solubility change mitosis (log2)” value in the data set with HeLa Kyoto [2] is -0.204. In addition, the “solubility in G1/S (log2)” value in the data set on HeLa Kyoto [3] stood at 0.0329. Moreover, the figures for the melting temperature with HeLa Kyoto [4] (cell cycle stage: G1/S) and in the data set with HeLa Kyoto [4] (cell cycle stage: mitosis) were 54.3 °C and 55 °C, respectively.
